Legend:
Test in all cases: ELISA
UbV.ANKRD13D.4 Q49A = UbV.ANKRD13D.4 Q49A (UniProt P0CG47)
UbV.ANKRD13D.4 W72A = UbV.ANKRD13D.4 W72A (UniProt P0CG47)
UbV.ANKRD13D.4 T12A = UbV.ANKRD13D.4 T12A (UniProt P0CG47)
UbV.ANKRD13D.4 L70A = UbV.ANKRD13D.4 L70A (UniProt P0CG47)
UbV.ANKRD13D.4 S65A = UbV.ANKRD13D.4 S65A (UniProt P0CG47)

Measured: fold effect on affinity against UbV.ANKRD13D.4

B1: UIM.ANKRD13D.4 peptide (peptide)
peptide: RGQQEEEDLQRILQLSLTEH
< 3 fold: UbV.ANKRD13D.4 Q49A | UbV.ANKRD13D.4 W72A | UbV.ANKRD13D.4 T12A | UbV.ANKRD13D.4 L70A | UbV.ANKRD13D.4 S65A
